Here are results for two substances from paper PMC9613975.

Assay [1] has as its target PacII S subunit (HsdS), full length, C-terminal 6His tag (assembly analysis) (Pseudomonas alcaligenes NEB585). Kind of assay: SEC; only two subunits co-expressed in E. coli (M1 with S, or M2 with S), purified by the same strategy as the wild-type PacII MTase; SEC.
For assay [2] the target is unchanged. Kind of assay: SEC; S subunit alone on size-exclusion chromatography; monomer-dimer equilibrium.

For “PacII M1 subunit (HsdM1), full length, construct without the 6His-SUMO tag (assembly analysis) (natural protein)”, the stoichiometry N in assay [1] is 1 M1 per S.

Substance “PacII S subunit (HsdS), full length, C-terminal 6His tag (assembly analysis) (natural protein)” had a stoichiometry N in assay [2] of 2.
